In the supplement of paper PMC10567573:

B1: RAB11B (parent)
chain: AVPTDEARAFAEKNNLSFIETSAL

Variants of: B1
Test: protein stability index of a GFP-peptide fusion (GPS, HEK-293T) (PSI 1-6); higher = more stable
Conditions: c terminus: a fixed tail appended
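Also: lentivirally expressed fusions sorted by FACS into six bins by GFP to DsRed ratio, PSI derived from sequencing read proportions per bin multiplied by bin number.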

Q: For AVPTDEARAFAEKNNLSQIETSAL [F18Q], which protein stability index is on record?
A: The protein stability index was 4.18.

Q: For AVPTDEARAFAEKNNLSPIETSAL [F18P], which protein stability index is on record?
A: The protein stability index was 4.88.

Q: With AVPTDEARAFAEKNNLSDIETSAL [F18D] as the variant, how does the protein stability index read?
A: Its protein stability index is 5.17.

Q: With AVPTDEARAFAEKNNLSEIETSAL [F18E] as the variant, how does the protein stability index read?
A: Its protein stability index is 5.3.

Q: Which protein stability index does the source give for AVPTDEARAFAEKNNLSIIETSAL [F18I] here?
A: Its protein stability index is 4.23.

Q: For AVPTDEARAFAEKNNLSHIETSAL [F18H], which protein stability index is on record?
A: Its protein stability index is 4.51.

Q: Which protein stability index does the source give for AVPTDEARAFAEKNNLSVIETSAL [F18V] here?
A: Its protein stability index is 4.71.

Q: For AVPTDEARAFAEKNNLSRIETSAL [F18R], which protein stability index is on record?
A: The protein stability index was 4.29.

Q: Which protein stability index does the source give for AVPTDEARAFAEKNNLSAIETSAL [F18A] here?
A: Its protein stability index is 4.78.

Q: With AVPTDEARAFAEKNNLSWIETSAL [F18W] as the variant, how does the protein stability index read?
A: The protein stability index was 3.67.

Q: For AVPTDEARAFAEKNNLSCIETSAL [F18C], which protein stability index is on record?
A: The protein stability index was 4.48.

Q: With AVPTDEARAFAEKNNLSLIETSAL [F18L] as the variant, how does the protein stability index read?
A: The protein stability index was 3.53.

Q: Which protein stability index does the source give for AVPTDEARAFAEKNNLSMIETSAL [F18M] here?
A: Its protein stability index is 4.1.

Q: For AVPTDEARAFAEKNNLSSIETSAL [F18S], which protein stability index is on record?
A: Its protein stability index is 4.89.

Q: Which protein stability index does the source give for AVPTDEARAFAEKNNLSKIETSAL [F18K] here?
A: The protein stability index was 4.67.

Q: For AVPTDEARAFAEKNNLSTIETSAL [F18T], which protein stability index is on record?
A: The protein stability index was 4.97.

Q: For AVPTDEARAFAEKNNLSGIETSAL [F18G], which protein stability index is on record?
A: The protein stability index was 4.47.

Q: For AVPTDEARAFAEKNNLSNIETSAL [F18N], which protein stability index is on record?
A: Its protein stability index is 4.95.

Q: Which protein stability index does the source give for AVPTDEARAFAEKNNLSYIETSAL [F18Y] here?
A: The protein stability index was 2.97.

Q: With AVPTDEARAFPEKNNLSFIETSAL [A11P] as the variant, how does the protein stability index read?
A: Its protein stability index is 2.8.

Q: For AVPTDEARAFSEKNNLSFIETSAL [A11S], which protein stability index is on record?
A: The protein stability index was 2.68.

Q: With AVPTDEARAFQEKNNLSFIETSAL [A11Q] as the variant, how does the protein stability index read?
A: Its protein stability index is 2.85.

Q: With AVPTDEARAFNEKNNLSFIETSAL [A11N] as the variant, how does the protein stability index read?
A: Its protein stability index is 2.87.

Q: Which protein stability index does the source give for AVPTDEARAFKEKNNLSFIETSAL [A11K] here?
A: Its protein stability index is 2.19.

Q: With AVPTDEARAFWEKNNLSFIETSAL [A11W] as the variant, how does the protein stability index read?
A: The protein stability index was 2.48.

Q: Which protein stability index does the source give for AVPTDEARAFHEKNNLSFIETSAL [A11H] here?
A: The protein stability index was 2.3.

Q: Which protein stability index does the source give for AVPTDEARAFREKNNLSFIETSAL [A11R] here?
A: The protein stability index was 2.35.

Q: Which protein stability index does the source give for AVPTDEARAFVEKNNLSFIETSAL [A11V] here?
A: The protein stability index was 2.3.

Q: For AVPTDEARAFFEKNNLSFIETSAL [A11F], which protein stability index is on record?
A: Its protein stability index is 2.69.

Q: Which protein stability index does the source give for AVPTDEARAFCEKNNLSFIETSAL [A11C] here?
A: Its protein stability index is 3.16.

Q: For AVPTDEARAFMEKNNLSFIETSAL [A11M], which protein stability index is on record?
A: The protein stability index was 2.8.

Q: For AVPTDEARAFDEKNNLSFIETSAL [A11D], which protein stability index is on record?
A: Its protein stability index is 3.88.

Q: For AVPTDEARAFEEKNNLSFIETSAL [A11E], which protein stability index is on record?
A: The protein stability index was 3.69.

Q: For AVPTDEARAFYEKNNLSFIETSAL [A11Y], which protein stability index is on record?
A: Its protein stability index is 2.15.

Q: With AVPTDEARAFGEKNNLSFIETSAL [A11G] as the variant, how does the protein stability index read?
A: Its protein stability index is 2.16.

Q: With AVPTDEARAFTEKNNLSFIETSAL [A11T] as the variant, how does the protein stability index read?
A: The protein stability index was 2.71.

Q: With AVPTDEARAFLEKNNLSFIETSAL [A11L] as the variant, how does the protein stability index read?
A: Its protein stability index is 2.4.

Q: For AVPTDEARAFIEKNNLSFIETSAL [A11I], which protein stability index is on record?
A: Its protein stability index is 2.66.

Q: For AVPTDEARAFAEVNNLSFIETSAL [K13V], which protein stability index is on record?
A: Its protein stability index is 2.13.

Q: For AVPTDEARAFAETNNLSFIETSAL [K13T], which protein stability index is on record?
A: The protein stability index was 2.63.

Q: Which protein stability index does the source give for AVPTDEARAFAEGNNLSFIETSAL [K13G] here?
A: Its protein stability index is 3.17.

Q: Which protein stability index does the source give for AVPTDEARAFAELNNLSFIETSAL [K13L] here?
A: The protein stability index was 2.14.

Q: Which protein stability index does the source give for AVPTDEARAFAERNNLSFIETSAL [K13R] here?
A: Its protein stability index is 2.5.

Q: Which protein stability index does the source give for AVPTDEARAFAEINNLSFIETSAL [K13I] here?
A: Its protein stability index is 2.09.

Q: With AVPTDEARAFAEENNLSFIETSAL [K13E] as the variant, how does the protein stability index read?
A: The protein stability index was 3.9.

Q: For AVPTDEARAFAEWNNLSFIETSAL [K13W], which protein stability index is on record?
A: The protein stability index was 1.94.

Q: For AVPTDEARAFAEYNNLSFIETSAL [K13Y], which protein stability index is on record?
A: Its protein stability index is 1.88.

Q: With AVPTDEARAFAECNNLSFIETSAL [K13C] as the variant, how does the protein stability index read?
A: The protein stability index was 2.47.

Q: Which protein stability index does the source give for AVPTDEARAFAESNNLSFIETSAL [K13S] here?
A: The protein stability index was 2.48.

Q: With AVPTDEARAFAEHNNLSFIETSAL [K13H] as the variant, how does the protein stability index read?
A: The protein stability index was 2.24.

Q: With AVPTDEARAFAEMNNLSFIETSAL [K13M] as the variant, how does the protein stability index read?
A: The protein stability index was 2.09.

Q: Which protein stability index does the source give for AVPTDEARAFAEFNNLSFIETSAL [K13F] here?
A: Its protein stability index is 2.49.

Q: Which protein stability index does the source give for AVPTDEARAFAENNNLSFIETSAL [K13N] here?
A: The protein stability index was 1.59.

Q: With AVPTDEARAFAEANNLSFIETSAL [K13A] as the variant, how does the protein stability index read?
A: Its protein stability index is 3.08.

Q: Which protein stability index does the source give for AVPTDEARAFAEDNNLSFIETSAL [K13D] here?
A: The protein stability index was 3.24.

Q: Which protein stability index does the source give for AVPTDEARAFAEPNNLSFIETSAL [K13P] here?
A: Its protein stability index is 2.12.

Q: With AVPTDEARAFAEQNNLSFIETSAL [K13Q] as the variant, how does the protein stability index read?
A: The protein stability index was 2.84.

Q: With AVPTDEARAFAEKNNLLFIETSAL [S17L] as the variant, how does the protein stability index read?
A: Its protein stability index is 2.77.

Q: For AVPTDEARAFAEKNNLQFIETSAL [S17Q], which protein stability index is on record?
A: The protein stability index was 4.23.

Q: Which protein stability index does the source give for AVPTDEARAFAEKNNLWFIETSAL [S17W] here?
A: The protein stability index was 2.64.

Q: With AVPTDEARAFAEKNNLKFIETSAL [S17K] as the variant, how does the protein stability index read?
A: Its protein stability index is 3.79.

Q: With AVPTDEARAFAEKNNLIFIETSAL [S17I] as the variant, how does the protein stability index read?
A: Its protein stability index is 2.89.

Q: For AVPTDEARAFAEKNNLAFIETSAL [S17A], which protein stability index is on record?
A: Its protein stability index is 2.78.

Q: With AVPTDEARAFAEKNNLNFIETSAL [S17N] as the variant, how does the protein stability index read?
A: Its protein stability index is 2.86.

Q: For AVPTDEARAFAEKNNLHFIETSAL [S17H], which protein stability index is on record?
A: Its protein stability index is 3.07.

Q: Which protein stability index does the source give for AVPTDEARAFAEKNNLGFIETSAL [S17G] here?
A: The protein stability index was 3.7.

Q: Which protein stability index does the source give for AVPTDEARAFAEKNNLTFIETSAL [S17T] here?
A: The protein stability index was 2.93.

Q: Which protein stability index does the source give for AVPTDEARAFAEKNNLPFIETSAL [S17P] here?
A: Its protein stability index is 4.19.

Q: Which protein stability index does the source give for AVPTDEARAFAEKNNLFFIETSAL [S17F] here?
A: The protein stability index was 2.59.

Q: For AVPTDEARAFAEKNNLRFIETSAL [S17R], which protein stability index is on record?
A: The protein stability index was 3.41.

Q: With AVPTDEARAFAEKNNLEFIETSAL [S17E] as the variant, how does the protein stability index read?
A: Its protein stability index is 4.62.

Q: Which protein stability index does the source give for AVPTDEARAFAEKNNLMFIETSAL [S17M] here?
A: Its protein stability index is 3.1.

Q: Which protein stability index does the source give for AVPTDEARAFAEKNNLDFIETSAL [S17D] here?
A: The protein stability index was 3.48.

Q: For AVPTDEARAFAEKNNLYFIETSAL [S17Y], which protein stability index is on record?
A: Its protein stability index is 2.85.

Q: Which protein stability index does the source give for AVPTDEARAFAEKNNLCFIETSAL [S17C] here?
A: The protein stability index was 3.

Q: For AVPTDEARAFAEKNNLVFIETSAL [S17V], which protein stability index is on record?
A: Its protein stability index is 3.15.

Q: For AVPTDEARAFANKNNLSFIETSAL [E12N], which protein stability index is on record?
A: The protein stability index was 2.02.

Q: With AVPTDEARAFARKNNLSFIETSAL [E12R] as the variant, how does the protein stability index read?
A: Its protein stability index is 2.15.

Q: Which protein stability index does the source give for AVPTDEARAFAHKNNLSFIETSAL [E12H] here?
A: Its protein stability index is 2.65.

Q: Which protein stability index does the source give for AVPTDEARAFATKNNLSFIETSAL [E12T] here?
A: Its protein stability index is 2.61.

Q: With AVPTDEARAFADKNNLSFIETSAL [E12D] as the variant, how does the protein stability index read?
A: The protein stability index was 2.81.

Q: Which protein stability index does the source give for AVPTDEARAFAFKNNLSFIETSAL [E12F] here?
A: The protein stability index was 1.74.

Q: With AVPTDEARAFAKKNNLSFIETSAL [E12K] as the variant, how does the protein stability index read?
A: The protein stability index was 1.93.

Q: With AVPTDEARAFAIKNNLSFIETSAL [E12I] as the variant, how does the protein stability index read?
A: Its protein stability index is 1.99.

Q: With AVPTDEARAFACKNNLSFIETSAL [E12C] as the variant, how does the protein stability index read?
A: The protein stability index was 1.91.

Q: For AVPTDEARAFAPKNNLSFIETSAL [E12P], which protein stability index is on record?
A: The protein stability index was 2.34.

Q: With AVPTDEARAFAWKNNLSFIETSAL [E12W] as the variant, how does the protein stability index read?
A: The protein stability index was 1.6.

Q: Which protein stability index does the source give for AVPTDEARAFAYKNNLSFIETSAL [E12Y] here?
A: Its protein stability index is 1.93.

Q: For AVPTDEARAFAGKNNLSFIETSAL [E12G], which protein stability index is on record?
A: Its protein stability index is 2.16.

Q: With AVPTDEARAFALKNNLSFIETSAL [E12L] as the variant, how does the protein stability index read?
A: The protein stability index was 2.02.

Q: Which protein stability index does the source give for AVPTDEARAFAAKNNLSFIETSAL [E12A] here?
A: Its protein stability index is 2.89.

Q: For AVPTDEARAFAMKNNLSFIETSAL [E12M], which protein stability index is on record?
A: Its protein stability index is 1.97.

Q: For AVPTDEARAFAQKNNLSFIETSAL [E12Q], which protein stability index is on record?
A: The protein stability index was 2.52.

Q: For AVPTDEARAFAVKNNLSFIETSAL [E12V], which protein stability index is on record?
A: Its protein stability index is 2.47.
